Assay [1] has as its target T1, Cynomolgus monkey CD16-his (cynomolgus monkey).
T1 construct: entry holds ECD, AVI tag, linker and His tag; also called cyno CD16-ECD his; Cyno CD16
T1 chain: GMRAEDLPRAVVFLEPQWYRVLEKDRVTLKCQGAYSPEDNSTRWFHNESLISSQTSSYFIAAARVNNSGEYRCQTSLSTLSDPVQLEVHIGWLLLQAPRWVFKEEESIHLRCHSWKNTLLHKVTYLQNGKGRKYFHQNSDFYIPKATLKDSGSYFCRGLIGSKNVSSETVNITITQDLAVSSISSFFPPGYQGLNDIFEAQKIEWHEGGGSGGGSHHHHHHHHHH
As to the kind of experiment: SPR (Biacore), antibody captured on Protein A. The procedure, abridged:
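Protein A–captured antibody was probed with CD16-his ECD in HBS-EP+ at 25 °C: five 2-fold dilutions from 200 nM, 240 s at 30 μL/min, dissociation up to 600 s. Glycine pH 1.5 regenerated the chip. Apparent KD came from a double-referenced 1:1 Langmuir fit.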
A general note: In SPR one partner is held on a chip, and binding of the other changes the refractive index at the surface.

For assay [2], the target named is T2, cynomolgus monkey CD16, full length, on FlpinCHO cells (cynomolgus monkey, UniProt Q8SPW2 17-254).
T2 construct: also called FlpinCHO-cyno CD16; Flipin CHO-cyno CD16
As to the kind of experiment: FACS on FlpinCHO cells. The procedure, abridged:
(§1)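 FlpinCHO cells expressing full-length cynomolgus CD16, blocked in PBS/2% BSA at 2×10⁶ cells/ml, incubated with antibody at various concentrations 1 h on ice. Flow cytometry MFI fitted to give EC50.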

Assay [3] deals with T2, cynomolgus monkey CD16, full length, on …. Description: FACS on FlpinCHO cells. The procedure, abridged:
as §1
This is another data set of the same source.

Assay [4] has as its target human CD16a (158F), full length, on FlpinCHO cells (human, UniProt P08637 17-254). Description: FACS on FlpinCHO cells.
Assay [5] deals with T3, human CD16a (158V), full length, on cells (human, UniProt P08637 17-254).
T3 construct: also used as target for the bought Jurkat-NFAT reporter line stably expressing human CD16a (158V); also called FlpinCHO-human CD16a (158V); FlpinCHO-CD16a (158V)
As to the kind of experiment: FACS on FlpinCHO cells.

Assay [6] addresses T4, human CD16b (NA2), full length, on FlpinCHO cells (human, UniProt O75015 17-200).
T4 construct: also called FlpinCHO-human CD16b (NA2)
T4 chain: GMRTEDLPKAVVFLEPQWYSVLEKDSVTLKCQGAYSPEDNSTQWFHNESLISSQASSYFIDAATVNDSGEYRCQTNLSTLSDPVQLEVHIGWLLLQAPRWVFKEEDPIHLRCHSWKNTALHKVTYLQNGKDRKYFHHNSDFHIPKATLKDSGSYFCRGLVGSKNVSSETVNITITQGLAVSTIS
Description: FACS on FlpinCHO cells. The procedure, abridged:
(§2)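 EC50 values come from fitted MFI curves measured by FACS. Antibody dilutions were bound for 1 hour on ice to CD16b-transfected FlpinCHO cells suspended in PBS with 2% BSA blocking solution.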

Assay [7] has as its target T5, human CD16b (NA1), full length, on FlpinCHO cells (human, UniProt O75015 17-200).
T5 construct: also called FlpinCHO-human CD16b (NA1)
T5 chain: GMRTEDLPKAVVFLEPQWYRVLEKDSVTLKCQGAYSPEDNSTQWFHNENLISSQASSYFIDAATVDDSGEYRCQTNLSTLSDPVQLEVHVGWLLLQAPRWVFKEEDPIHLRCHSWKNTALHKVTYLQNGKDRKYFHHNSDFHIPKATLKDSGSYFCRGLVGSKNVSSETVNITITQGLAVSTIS
Description: FACS on FlpinCHO cells. The procedure, abridged: as §2

Assay [8] concerns the target T3, human CD16a (158V), full length, on …. Description: cell-based or functional assay.

Where two headings read alike, the source gives them in different places.

T3 sequence (P08637 17-254 F176V limits assumed): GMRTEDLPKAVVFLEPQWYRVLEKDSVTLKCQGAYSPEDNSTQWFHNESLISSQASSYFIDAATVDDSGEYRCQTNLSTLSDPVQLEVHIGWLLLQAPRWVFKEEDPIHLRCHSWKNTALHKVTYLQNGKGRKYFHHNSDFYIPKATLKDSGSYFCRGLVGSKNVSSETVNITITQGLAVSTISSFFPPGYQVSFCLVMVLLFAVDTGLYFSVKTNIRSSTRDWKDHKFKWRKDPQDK
human CD16a (158F), full length, on FlpinCHO cells, sequence (P08637 17-254 limits assumed): as the sequence (P08637 17-254 F176V limits assumed) above, with V160F counted along it
T2 sequence (Q8SPW2 other isoform, or with tags, fused parts or gaps limits assumed): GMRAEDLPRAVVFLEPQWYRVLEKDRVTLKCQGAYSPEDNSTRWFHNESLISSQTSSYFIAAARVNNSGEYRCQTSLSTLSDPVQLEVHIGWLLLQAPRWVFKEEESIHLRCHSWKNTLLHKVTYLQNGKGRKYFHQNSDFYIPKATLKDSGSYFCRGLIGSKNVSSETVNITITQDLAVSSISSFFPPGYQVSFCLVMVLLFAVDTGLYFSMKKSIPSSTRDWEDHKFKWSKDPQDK

B1: VHH11 VHH-Fc antibody (Fc fusion)
chain: EVQVVESGGGLAQAGGSLRLSCAVSGITFSSYAMGWYRQDPGKQRELVAAINRFGLTNYADSVKGRFTISRDNAKNTVYLQMTSLKPEDTAVYYCNTGGVYSHPNYYTGTYWGQGTQVTVSSEPKSSDKTHTCPPCPAPEFEGGPSVFLFPPKPKDTLMISRTPEVTCVVVAVSHEDPEVKFNWYVDGVEVHNAKTKPREEQYNSTYRVVSVLTVLHQDWLNGKEYKCKVSNKALPAPIEKTISKAKGQPREPQVYTLPPSREEMTKNQVSLTCLVKGFYPSDIAVEWESNGQPENNYKTTPPVLDSDGSFFLYSKLTVDKSRWQQGNVFSCSVMHEALHNHYTQKSLSLSPGK
Usually Kd stands for the equilibrium constant for the complex coming apart. For orientation: koff means the rate constant with which the complex falls apart. In general, kon refers to the second-order rate constant of association. For orientation: EC50 means the concentration that produces a half-maximal response. As to B1, in assay [1], binding was characterised by a dissociation constant (Kd) of 23.6 nM, the koff was 0.015 s⁻¹ and the on-rate constant (kon) was 633000 M⁻¹ s⁻¹. Moreover, in assay [2], the response was half-maximal at 0.41 nM (EC50) and the “Maximum mean fluorescence intensity” value worked out at 22000.

B2: VHH12 VHH-Fc antibody (Fc fusion)
chain: QVQLVESGGGLVQAGGSLRLSCAASGITFSSYAMGWYRQAPGKQRELVAAINRFGLTNYADFVKGRFTISRVNAKNTVYLQMTSLKPEDTAVYYCNTGGVYSHPDYYTGTYWGQGTQVTVSSEPKSSDKTHTCPPCPAPEFEGGPSVFLFPPKPKDTLMISRTPEVTCVVVAVSHEDPEVKFNWYVDGVEVHNAKTKPREEQYNSTYRVVSVLTVLHQDWLNGKEYKCKVSNKALPAPIEKTISKAKGQPREPQVYTLPPSREEMTKNQVSLTCLVKGFYPSDIAVEWESNGQPENNYKTTPPVLDSDGSFFLYSKLTVDKSRWQQGNVFSCSVMHEALHNHYTQKSLSLSPGK
Consider B2, for which the concentration giving a half-maximal response (EC50) in assay [3] stood at 0.35 nM; in assay [4], 0.23 nM; in assay [5], 0.24 nM; in assay [7] it was 0.7 nM; in assay [2], 0.24 nM. In addition, the “Maximum mean fluorescence intensity” value in assay [3] worked out at 18400; in assay [4] it was 8730; in assay [5] it was 8050; in assay [6], 87900; in assay [7], 60500; in assay [2] it was 22200. This molecule came in with an equilibrium dissociation constant (Kd) in assay [1] of 8.51 nM. In addition, in assay [1], the koff is 0.0101 s⁻¹. The molecule also had an on-rate constant (kon) in assay [1] of 1.18e+06 M⁻¹ s⁻¹. Further, the “EC50, activation activity for Jurkat cell” value in assay [8] turned out to be 0.01 nM. Also, the Maximum fluorescence value in assay [8] worked out at 142000.

B3: VHH06 VHH-Fc antibody (Fc fusion)
chain: EVQLVESGGGLVQAGGSLRLSCVASGSTWTTYAVRWYRQAPGKQREWVAFISVDGSTNYPDSVKGRFIVSRDNAKNTVYLQMNSLKPEDTADYICRVGGQYWGQGTQVTVSSEPKSSDKTHTCPPCPAPEFEGGPSVFLFPPKPKDTLMISRTPEVTCVVVAVSHEDPEVKFNWYVDGVEVHNAKTKPREEQYNSTYRVVSVLTVLHQDWLNGKEYKCKVSNKALPAPIEKTISKAKGQPREPQVYTLPPSREEMTKNQVSLTCLVKGFYPSDIAVEWESNGQPENNYKTTPPVLDSDGSFFLYSKLTVDKSRWQQGNVFSCSVMHEALHNHYTQKSLSLSPGK
Regarding B3, the EC50 in assay [4] amounted to 0.61 nM; in assay [5], 0.66 nM; in assay [7], 0.74 nM. For the same molecule, the “Maximum mean fluorescence intensity” value in assay [4] stood at 10200; in assay [5], 9250; in assay [6], 468; in assay [7] it was 54100. In assay [8], the “EC50, activation activity for Jurkat cell” value was determined as 0.02 nM. This molecule also registered a Maximum fluorescence value in assay [8] of 168000.

The record behind these values is patent publication US20240343811A1 (SHANDONG SIMCERE BIOPHARMACUTICAL, published 2024).
